Data as given in patent US20250011468A1 (Novo Nordisk, published 2025).

Assays:
[1] = molecular target: T1, wild-type FIX with C-terminal His-tag (human, UniProt P00740 47-461); assay: SPR (Biacore T200), His-tagged FIX captured by anti-His antibody, one-armed antibody as analyte; % of wild-type binding
T1 construct: Secreted mature FIX from expi293F cells; also called WT
Procedure: (§1) SPR analyses were carried out on Biacore 4000 or Biacore T200 instruments (Biacore AB, Uppsala, Sweden). For the experiments on the T200 instrument the following conditions were applied: measurements were conducted at a temperature of 25° C. Anti-His antibody at 25 μg/ml (R&D Systems, catalogue #MAB050) was immobilized on a CM5 sensor chip using standard amine coupling chemistry. […] at 25 nM were injected at a flow rate of 10 μl/min for 1 min and were captured via their His-tag by the immobilized anti-His antibody. Subsequently, 200 nM (with 4-fold serial dilutions), 1600 nM (with 3-fold serial dilutions), and 2000 nM (with 3-fold serial dilution) of mAb4-0004, mAb3-3279 and mAb4-0673, respectively, were injected at a flow rate of 50 μl/min for 5 min to allow for binding to captured FIX variant followed by a 10 min buffer injection allowing for dissociation of the monovalent anti-FIX antibodies. The running buffer used was 20 mM Tris, 150 mM NaCl, 5 mM CaCl₂, 0.05% Tween-20, 1 mg/ml BSA, pH 7.4. This was also used for dilution of anti-FIX antibody and FIX samples. Regeneration of the chip was achieved using 10 mM Glycine pH 2.0. Binding data were analysed according to a 1:1 model using BiaEvaluation 4.1 supplied by the manufacturer (Biacore AB, Uppsala, Sweden). A similar experimental set-up was used for the Biacore 4000 instrument.

[2] = molecular target: FIX R333A with C-terminal His-tag (human, UniProt P00740 47-461); assay: SPR (Biacore T200), His-tagged FIX variant captured by anti-His antibody, one-armed antibody as analyte; % of wild-type binding
Procedure: as §1
(§2) A more detailed binding analysis was conducted for residues defined as epitope residues (see example 6) using the Biacore T200 instrument.

[3] = molecular target: FIX L337A with C-terminal His-tag (human, UniProt P00740 47-461); assay: as above
Procedure: as §1, §2

[4] = molecular target: FIX K301A with C-terminal His-tag (human, UniProt P00740 47-461); assay: as above
Procedure: as §1, §2

[5] = molecular target: FIX K341A with C-terminal His-tag (human, UniProt P00740 47-461); assay: as above
Procedure: as §1, §2

[6] = molecular target: FIX K341E with C-terminal His-tag (human, UniProt P00740 47-461); assay: as above
Procedure: as §1, §2

[7] = molecular target: FIX T340A with C-terminal His-tag (human, UniProt P00740 47-461); assay: as above
Procedure: as §1, §2

[8] = molecular target: FIX T343I with C-terminal His-tag (human, UniProt P00740 47-461); assay: as above
Procedure: as §1, §2

[9] = molecular target: FIX T335A with C-terminal His-tag (human, UniProt P00740 47-461); assay: as above
Procedure: as §1, §2

[10] = molecular target: FIX S339L with C-terminal His-tag (human, UniProt P00740 47-461); assay: as above
Procedure: as §1, §2

[11] = molecular target: FIX A334L with C-terminal His-tag (human, UniProt P00740 47-461); assay: as above
Procedure: as §1, §2

[12] = molecular target: FIX N346A with C-terminal His-tag (human, UniProt P00740 47-461); assay: as above
Procedure: as §1, §2

[13] = molecular target: FIX D332A with C-terminal His-tag (human, UniProt P00740 47-461); assay: as above
Procedure: as §1, §2

[14] = molecular target: FIX T343A with C-terminal His-tag (human, UniProt P00740 47-461); assay: as above
Procedure: as §1, §2

[15] = molecular target: FIX R338A with C-terminal His-tag (human, UniProt P00740 47-461); assay: as above
Procedure: as §1, §2

[16] = molecular target: FIX D332S with C-terminal His-tag (human, UniProt P00740 47-461); assay: as above
Procedure: as §1, §2

[17] = molecular target: FIX N346Q with C-terminal His-tag (human, UniProt P00740 47-461); assay: as above
Procedure: as §1, §2

[18] = molecular target: FIX N258A with C-terminal His-tag (human, UniProt P00740 47-461); assay: as above
Procedure: as §1, §2

[19] = molecular target: FIX N406A with C-terminal His-tag (human, UniProt P00740 47-461); assay: as above
Procedure: as §1, §2

[20] = molecular target: FIX E410Q with C-terminal His-tag (human, UniProt P00740 47-461); assay: as above
Procedure: as §1, §2

[21] = molecular target: FIX K293A with C-terminal His-tag (human, UniProt P00740 47-461); assay: as above
Procedure: as §1, §2

[22] = molecular target: FIX H256A with C-terminal His-tag (human, UniProt P00740 47-461); assay: as above
Procedure: as §1, §2

[23] = molecular target: FIX R403A with C-terminal His-tag (human, UniProt P00740 47-461); assay: as above
Procedure: as §1, §2

[24] = molecular target: FIX Y404F with C-terminal His-tag (human, UniProt P00740 47-461); assay: as above
Procedure: as §1, §2

[25] = molecular target: FIX K411A with C-terminal His-tag (human, UniProt P00740 47-461); assay: as above
Procedure: as §1, §2

[26] = molecular target: FIX H257A with C-terminal His-tag (human, UniProt P00740 47-461); assay: as above
Procedure: as §1, §2

T1 sequence (P00740 other isoform, or with tags, fused parts or gaps limits assumed): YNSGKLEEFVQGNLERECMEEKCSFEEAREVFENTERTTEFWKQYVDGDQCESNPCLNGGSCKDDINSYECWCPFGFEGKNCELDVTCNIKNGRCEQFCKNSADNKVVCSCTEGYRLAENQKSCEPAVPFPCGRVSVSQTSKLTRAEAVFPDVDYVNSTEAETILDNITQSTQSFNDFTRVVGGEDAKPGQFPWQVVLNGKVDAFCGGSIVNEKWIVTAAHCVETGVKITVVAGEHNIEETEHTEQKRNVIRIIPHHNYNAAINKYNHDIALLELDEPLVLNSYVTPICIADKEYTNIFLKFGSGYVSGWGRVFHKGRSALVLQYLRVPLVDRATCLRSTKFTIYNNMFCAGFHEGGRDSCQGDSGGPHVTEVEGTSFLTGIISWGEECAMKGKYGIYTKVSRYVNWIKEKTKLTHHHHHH
Chain of FIX T343A with C-terminal His-tag (P00740 other isoform, or with tags, fused parts or gaps T343A T343A limits assumed): as the sequence (P00740 other isoform, or with tags, fused parts or gaps limits assumed) above, with T343A counted along it
Chain of FIX R333A with C-terminal His-tag (P00740 other isoform, or with tags, fused parts or gaps R333A R333A limits assumed): as the sequence (P00740 other isoform, or with tags, fused parts or gaps limits assumed) above, with R333A counted along it
Chain of FIX R338A with C-terminal His-tag (P00740 other isoform, or with tags, fused parts or gaps R338A R338A limits assumed): as the sequence (P00740 other isoform, or with tags, fused parts or gaps limits assumed) above, with R338A counted along it
Chain of FIX T340A with C-terminal His-tag (P00740 other isoform, or with tags, fused parts or gaps T340A T340A limits assumed): as the sequence (P00740 other isoform, or with tags, fused parts or gaps limits assumed) above, with T340A counted along it
Chain of FIX K341A with C-terminal His-tag (P00740 other isoform, or with tags, fused parts or gaps K341A K341A limits assumed): as the sequence (P00740 other isoform, or with tags, fused parts or gaps limits assumed) above, with K341A counted along it
Chain of FIX T335A with C-terminal His-tag (P00740 other isoform, or with tags, fused parts or gaps T335A T335A limits assumed): as the sequence (P00740 other isoform, or with tags, fused parts or gaps limits assumed) above, with T335A counted along it
Chain of FIX K301A with C-terminal His-tag (P00740 other isoform, or with tags, fused parts or gaps K301A K301A limits assumed): as the sequence (P00740 other isoform, or with tags, fused parts or gaps limits assumed) above, with K301A counted along it
Chain of FIX K341E with C-terminal His-tag (P00740 other isoform, or with tags, fused parts or gaps K341E K341E limits assumed): as the sequence (P00740 other isoform, or with tags, fused parts or gaps limits assumed) above, with K341E counted along it
Chain of FIX A334L with C-terminal His-tag (P00740 other isoform, or with tags, fused parts or gaps A334L A334L limits assumed): as the sequence (P00740 other isoform, or with tags, fused parts or gaps limits assumed) above, with A334L counted along it
Chain of FIX T343I with C-terminal His-tag (P00740 other isoform, or with tags, fused parts or gaps T343I T343I limits assumed): as the sequence (P00740 other isoform, or with tags, fused parts or gaps limits assumed) above, with T343I counted along it

| Binder | Binding (%) relative to wild-type [1] | Binding (%) relative to wild-type [2] | Binding (%) relative to wild-type [3] | Binding (%) relative to wild-type [4] | Binding (%) relative to wild-type [5] | Binding (%) relative to wild-type [6] | Binding (%) relative to wild-type [7] | Binding (%) relative to wild-type [8] | Binding (%) relative to wild-type [9] | Binding (%) relative to wild-type [10] | Binding (%) relative to wild-type [11] | Binding (%) relative to wild-type [12] | Binding (%) relative to wild-type [13] | Binding (%) relative to wild-type [14] | Binding (%) relative to wild-type [15] | other results |
| --- | --- | --- | --- | --- | --- | --- | --- | --- | --- | --- | --- | --- | --- | --- | --- | --- |
| mAb4-0004 (monovalent one-armed variant of mAb0-1998) (antibody, V domains shown) VH: EVQLVESGGGLVQPGRSLKLSCAASGFTFDDYAMHWVRQVPGKGLEWVSGISWNGDNIGYVDSVKGRFTISRDNAKNSLYLQLNSLRAEDTALYYCVKSYGSGSFYNAFDSWGQGTLVTVSS VL: DIQMTQSPSTLSASAGDRVTITCRASQSISSWLAWYQQKPGKAPKFLIYKASSLESGVPSRFSGSGSGTEFSLTISSLQPDDFATYYCLEYSSYIRTFGQGTKVEIK | 100% | 66% | 52% | 66% | 21% | 2% | 37% | 48% | 62% | 66% | 51% | 73% | 50% | 38% | 2% | Binding (%) relative to wild-type [16]: 66% |
| mAb4-0673 (monovalent one-armed variant of mAb0-1886) (antibody, V domains shown) VH: EVQLVQSGAEVKKPGESLRISCKGSGYSFTSYWIGWVRQMPGKGLEWMGMIDPSDSYTDYGPSFRGHVTISADKSISTAYLQWSSLKASDTAMYYCARVRIMEGAFDIWGQGTMVTVSS VL: not shown | 100% | 4% | 7% | 93% | 96% | 53% | 67% | 90% | 71% | 73% | 44% | 51% | 17% | 63% | 3% | Binding (%) relative to wild-type [17]: 94% |
| mAb3-3279 (monovalent one-armed variant of mAb1-1307) (antibody, V domains shown) VH: EVQLVESGGGLVQPGRSLRLSCAASGFTFGDYAMHWVRQAPGKGLEWVSGISWNSGSIGYADSVKGRFTISRDNAKNSLYLQMNSLRAEDTALYYCAKGQYDEDAGMDVWGQGTTVTVSS VL: DIQMTQSPSSLSASVGDRVTITCRASQSISSYLNWYQQKPGKAPKLLIYAASSLQSGVPSRFSGSGSGTDFTLTISSLQPEDFATYYCQQGYPTWTFGGGTKVEIK | 100% | – | – | – | – | – | – | – | – | – | – | – | – | – | – | Binding (%) relative to wild-type [18]: 82%; Binding (%) relative to wild-type [19]: 12%; Binding (%) relative to wild-type [20]: 39%; Binding (%) relative to wild-type [21]: 23%; Binding (%) relative to wild-type [22]: 32%; Binding (%) relative to wild-type [23]: 94%; Binding (%) relative to wild-type [24]: 76%; Binding (%) relative to wild-type [25]: 71%; Binding (%) relative to wild-type [26]: 8% |
